# Data as given in patent publication US10047131B2, “Peptides and combination of peptides for use in immunotherapy against ovarian cancer and other cancers” (immatics biotechnologies GmbH, priority 2015, dated 2018).
# Molecular target: HLA-A*02:01 (Homo sapiens, UniProt P04439, D140Y/D185E/D98H/E176V/E277Q/G131W/G231S/I119V/I121R/I166T/I218V/L300P/L318F/N151K/N90K/P208A/P217A/Q86G/Q94H/R138H/R169H/T345S)
# Assay: MHC binding assay (UV-ligand exchange, ELISA of exchange yield)
# Settings: binding to HLA-A*02:01, UV-ligand exchange
# Summary of the method: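 ELISA of β2m retained on streptavidin-captured, 100-fold diluted complexes (HRP anti-β2m, TMB, 450 nm) gives the yield. Complexes come from UV-triggered exchange of a photocleavable placeholder peptide for the candidate, which must bind to stop complex dissociation.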
row,Substance,"Peptide exchange (MHC class I binding score, peptide exchange yield)"
1,124 (ALYETELADA; listed as Homo sapiens) [compound 124],“++” (≥20% = ++)
2,125 (VQIHQVAQV; listed as Homo sapiens) [compound 125],“+++” (≥50 = +++)
3,126 (VLAYFLPEA; listed as Homo sapiens) [compound 126],“++++” (≥75% = ++++)
4,127 (KIGDEPPKV; listed as Homo sapiens) [compound 127],“++” (≥20% = ++)
5,128 (YLFDDPLSAV; listed as Homo sapiens) [compound 128],“++” (≥20% = ++)
6,129 (GLLDGGVDILL; listed as Homo sapiens) [compound 129],“+++” (≥50 = +++)
7,130 (FLWNGEDSALL; listed as Homo sapiens) [compound 130],“+++” (≥50 = +++)
8,131 (FVPPVTVFPSL; listed as Homo sapiens) [compound 131],“++” (≥20% = ++)
9,132 (LLVEQPPLAGV; listed as Homo sapiens) [compound 132],“+++” (≥50 = +++)
10,133 (KVLSNIHTV; listed as Homo sapiens) [compound 133],“++” (≥20% = ++)
11,134 (YLQELIFSV; listed as Homo sapiens) [compound 134],“+++” (≥50 = +++)
12,135 (ALSEVDFQL; listed as Homo sapiens) [compound 135],“+++” (≥50 = +++)
13,136 (YLADPSNLFVV; listed as Homo sapiens) [compound 136],“+++” (≥50 = +++)
14,137 (TLVLTLPTV; listed as Homo sapiens) [compound 137],“++++” (≥75% = ++++)
15,138 (YQYPRAILSV; listed as Homo sapiens) [compound 138],“+++” (≥50 = +++)
16,139 (SVMEVNSGIYRV; listed as Homo sapiens) [compound 139],“+++” (≥50 = +++)
17,140 (YMDAPKAAL; listed as Homo sapiens) [compound 140],“++” (≥20% = ++)
18,141 (YLDFSNNRL; listed as Homo sapiens) [compound 141],“++” (≥20% = ++)

row,Substance,"Peptide exchange (MHC class I binding score, peptide exchange yield)"
1,142 (FLFATPVFI; listed as Homo sapiens) [compound 142],“+++” (≥50 = +++)
2,143 (LLLDITPEI; listed as Homo sapiens) [compound 143],“++++” (≥75% = ++++)
3,144 (YIMEPSIFNTL; listed as Homo sapiens) [compound 144],“+++” (≥50 = +++)
4,145 (FLATSGTLAGI; listed as Homo sapiens) [compound 145],“++” (≥20% = ++)
5,146 (SLATAGDGLIEL; listed as Homo sapiens) [compound 146],“++” (≥20% = ++)
6,147 (SLLEAVSFL; listed as Homo sapiens) [compound 147],“+++” (≥50 = +++)
7,148 (ALNPEIVSV; listed as Homo sapiens) [compound 148],“++” (≥20% = ++)
8,149 (NLLELFVQL; listed as Homo sapiens) [compound 149],“+++” (≥50 = +++)
9,150 (RLWEEGEELEL; listed as Homo sapiens) [compound 150],“+++” (≥50 = +++)
10,151 (KILQQLVTL; listed as Homo sapiens) [compound 151],“+++” (≥50 = +++)
11,152 (ILFEDIFDV; listed as Homo sapiens) [compound 152],“+++” (≥50 = +++)
12,153 (FLIANVLYL; listed as Homo sapiens) [compound 153],“+” (≥10% = +)
13,154 (ALDDGTPAL; listed as Homo sapiens) [compound 154],“++” (≥20% = ++)
14,155 (RVANLHFPSV; listed as Homo sapiens) [compound 155],“+++” (≥50 = +++)
15,157 (SLNDEVPEV; listed as Homo sapiens) [compound 157],“++” (≥20% = ++)
16,158 (KLFDVDEDGYI; listed as Homo sapiens) [compound 158],“+++” (≥50 = +++)
17,159 (GLVGNPLPSV; listed as Homo sapiens) [compound 159],“++++” (≥75% = ++++)

# The remaining lines, values ahead:
row,"Peptide exchange (MHC class I binding score, peptide exchange yield)",Substance
1,“+++” (≥50 = +++),160 (FLFDEEIEQI; listed as Homo sapiens) [compound 160]
2,“+++” (≥50 = +++),161 (ALLEGVNTV; listed as Homo sapiens) [compound 161]
3,“+++” (≥50 = +++),162 (YQQAQVPSV; listed as Homo sapiens) [compound 162]
4,“+++” (≥50 = +++),163 (ALDEMGDLLQL; listed as Homo sapiens) [compound 163]
5,“+++” (≥50 = +++),164 (ALLPQPKNLTV; listed as Homo sapiens) [compound 164]
6,“+++” (≥50 = +++),165 (SLLDEIRAV; listed as Homo sapiens) [compound 165]
7,“+++” (≥50 = +++),166 (YLNHLEPPV; listed as Homo sapiens) [compound 166]
8,“+++” (≥50 = +++),167 (KVLEVTEEFGV; listed as Homo sapiens) [compound 167]
9,“++++” (≥75% = ++++),168 (KILDADIQL; listed as Homo sapiens) [compound 168]
10,“+++” (≥50 = +++),169 (NLPEYLPFV; listed as Homo sapiens) [compound 169]
11,“+++” (≥50 = +++),170 (RLQETLSAA; listed as Homo sapiens) [compound 170]
12,“+++” (≥50 = +++),171 (LLLPLQILL; listed as Homo sapiens) [compound 171]
13,“++” (≥20% = ++),172 (VLYSYTIITV; listed as Homo sapiens) [compound 172]
14,“+++” (≥50 = +++),173 (LLDSASAGLYL; listed as Homo sapiens) [compound 173]
15,“+++” (≥50 = +++),174 (ALAQYLITA; listed as Homo sapiens) [compound 174]
16,“+++” (≥50 = +++),175 (YLFENISQL; listed as Homo sapiens) [compound 175]

row,"Peptide exchange (MHC class I binding score, peptide exchange yield)",Substance
1,“++” (≥20% = ++),176 (YLMEGSYNKVFL; listed as Homo sapiens) [compound 176]
2,“++++” (≥75% = ++++),177 (YLLPEEYTSTL; listed as Homo sapiens) [compound 177]
3,“++++” (≥75% = ++++),178 (ALTEIAFVV; listed as Homo sapiens) [compound 178]
4,“+++” (≥50 = +++),179 (KVLNELYTV; listed as Homo sapiens) [compound 179]
5,“++” (≥20% = ++),180 (FQIDPHSGLVTV; listed as Homo sapiens) [compound 180]
6,“+++” (≥50 = +++),181 (LLWAGTAFQV; listed as Homo sapiens) [compound 181]
7,“+++” (≥50 = +++),182 (MLLEAPGIFL; listed as Homo sapiens) [compound 182]
8,“+++” (≥50 = +++),183 (FGLDLVTEL; listed as Homo sapiens) [compound 183]
9,“+++” (≥50 = +++),184 (YLMDINGKMWL; listed as Homo sapiens) [compound 184]
10,“++” (≥20% = ++),185 (FLIDDKGYTL; listed as Homo sapiens) [compound 185]
11,“++” (≥20% = ++),186 (TLFFQQNAL; listed as Homo sapiens) [compound 186]
12,“+++” (≥50 = +++),187 (RQISIRGIVGV; listed as Homo sapiens) [compound 187]
13,“+++” (≥50 = +++),188 (GLFPVTPEAV; listed as Homo sapiens) [compound 188]
14,“+++” (≥50 = +++),189 (ALQRKLPYV; listed as Homo sapiens) [compound 189]
15,“+++” (≥50 = +++),190 (FLSSLTETI; listed as Homo sapiens) [compound 190]
16,“++” (≥20% = ++),191 (LLQEGQALEYV; listed as Homo sapiens) [compound 191]
